{
  "source": "the Human Domainome abundance scans (Beltran et al. 2025)",
  "parents": {"B1": {"name": "Intersectin-1, residues 909 to 971; numbered along this chain, Q15811 (parent)", "chain": "QGEKVEGLQAQALYPWRAKKDNHLNFNKNDVITVLEQQDMWWFGEVQGQKGWFPKSYVKLISG"}},
  "note": "± gives the uncertainty stated by the source.",
  "data": [
    {"variants_of": "B1", "test": "abundance fitness (aPCA) (normalised: wild type 0, dead -1); higher = more abundant; growth selection in yeast, the domain comes from the species named", "conditions": "Homo sapiens", "values": [
      {"variant": "QGEKVEGLQAQALYPWRAKKDNHLNFNKNDVITVLEQQDMWWFGEFQGQKGWFPKSYVKLISG", "note": "[V46F]", "abundance fitness": "-0.101 ± 0.34"},
      {"variant": "QGEKVEGLQAQALYPWRAKKDNHLNFNKNDVITVLEQQDMWWFGEEQGQKGWFPKSYVKLISG", "note": "[V46E]", "abundance fitness": "-0.584 ± 0.13"},
      {"variant": "QGEKVEGLQAQALYPWRAKKDNHLNFNKNDVITVLEQQDMWWFGEYQGQKGWFPKSYVKLISG", "note": "[V46Y]", "abundance fitness": "-0.287 ± 0.29"},
      {"variant": "QGEKVEGLQAQALYPWRAKKDNHLNFNKNDVITVLEQQDMWWFGELQGQKGWFPKSYVKLISG", "note": "[V46L]", "abundance fitness": "0.079 ± 0.083"},
      {"variant": "QGEKVEGLQAQALYPWRAKKDNHLNFNKNDVITVLEQQDMWWFGENQGQKGWFPKSYVKLISG", "note": "[V46N]", "abundance fitness": "-0.309 ± 0.3"},
      {"variant": "QGEKVEGLQAQALYPWRAKKDNHLNFNKNDVITVLEQQDMWWFGERQGQKGWFPKSYVKLISG", "note": "[V46R]", "abundance fitness": "-0.1 ± 0.082"},
      {"variant": "QGEKVEGLQAQALYPWRAKKDNHLNFNKNDVITVLEQQDMWWFGEDQGQKGWFPKSYVKLISG", "note": "[V46D]", "abundance fitness": "-0.384 ± 0.31"},
      {"variant": "QGEKVEGLQAQALYPWRAKKDNHLNFNKNDVITVLEQQDMWWFGETQGQKGWFPKSYVKLISG", "note": "[V46T]", "abundance fitness": "-0.155 ± 0.14"},
      {"variant": "QGEKVEGLQAQALYPWRAKKDNHLNFNKNDVITVLEQQDMWWFGEQQGQKGWFPKSYVKLISG", "note": "[V46Q]", "abundance fitness": "-0.279 ± 0.17"},
      {"variant": "QGEKVEGLQAQALYPWRAKKDNHLNFNKNDVITVLEQQDMWWFGEMQGQKGWFPKSYVKLISG", "note": "[V46M]", "abundance fitness": "-0.048 ± 0.11"},
      {"variant": "QGEKVEGLQAQALYPWRAKKDNHLNFNKNDVITVLEQQDMWWFGEIQGQKGWFPKSYVKLISG", "note": "[V46I]", "abundance fitness": "-0.11 ± 0.11"},
      {"variant": "QGEKVEGLQAQALYPWRAKKDNHLNFNKNDVITVLEQQDMWWFGEKQGQKGWFPKSYVKLISG", "note": "[V46K]", "abundance fitness": "-0.051 ± 0.21"},
      {"variant": "QGEKVEGLQAQALYPWRAKKDNHLNFNKNDVITVLEQQDMWWFGEWQGQKGWFPKSYVKLISG", "note": "[V46W]", "abundance fitness": "-0.09 ± 0.13"},
      {"variant": "QGEKVEGLQAQALYPWRAKKDNHLNFNKNDVITVLEQQDMWWFGESQGQKGWFPKSYVKLISG", "note": "[V46S]", "abundance fitness": "-0.001 ± 0.13"},
      {"variant": "QGEKVEGLQAQALYPWRAKKDNHLNFNKNDVITVLEQQDMWWFGEGQGQKGWFPKSYVKLISG", "note": "[V46G]", "abundance fitness": "-0.193 ± 0.073"},
      {"variant": "QGEKVEGLQAQALYPWRAKKDNHLNFNKNDVITVLEQQDMWWFGEAQGQKGWFPKSYVKLISG", "note": "[V46A]", "abundance fitness": "0.015 ± 0.078"},
      {"variant": "QGEKVEGLQAQALYPWRAKKDNHLNFNKNDVITVLEQQDMWWFGEHQGQKGWFPKSYVKLISG", "note": "[V46H]", "abundance fitness": "0.035 ± 0.2"},
      {"variant": "QGEKVEGLQAQALYPWRAKKDNHLNFNKNDVITVLEQQDMWWFGECQGQKGWFPKSYVKLISG", "note": "[V46C]", "abundance fitness": "0.012 ± 0.18"},
      {"variant": "QGEKVEGLQAQALYPWRAKKDNHLNFNKNDVITVLEQQDMWWFGEVQPQKGWFPKSYVKLISG", "note": "[G48P]", "abundance fitness": "-0.604 ± 0.35"},
      {"variant": "QGEKVEGLQAQALYPWRAKKDNHLNFNKNDVITVLEQQDMWWFGEVQHQKGWFPKSYVKLISG", "note": "[G48H]", "abundance fitness": "-0.381 ± 0.49"},
      {"variant": "QGEKVEGLQAQALYPWRAKKDNHLNFNKNDVITVLEQQDMWWFGEVQTQKGWFPKSYVKLISG", "note": "[G48T]", "abundance fitness": "-0.526 ± 0.22"},
      {"variant": "QGEKVEGLQAQALYPWRAKKDNHLNFNKNDVITVLEQQDMWWFGEVQQQKGWFPKSYVKLISG", "note": "[G48Q]", "abundance fitness": "-0.38 ± 0.2"},
      {"variant": "QGEKVEGLQAQALYPWRAKKDNHLNFNKNDVITVLEQQDMWWFGEVQFQKGWFPKSYVKLISG", "note": "[G48F]", "abundance fitness": "-0.522 ± 0.36"},
      {"variant": "QGEKVEGLQAQALYPWRAKKDNHLNFNKNDVITVLEQQDMWWFGEVQYQKGWFPKSYVKLISG", "note": "[G48Y]", "abundance fitness": "-0.074 ± 0.21"},
      {"variant": "QGEKVEGLQAQALYPWRAKKDNHLNFNKNDVITVLEQQDMWWFGEVQDQKGWFPKSYVKLISG", "note": "[G48D]", "abundance fitness": "-0.061 ± 0.18"},
      {"variant": "QGEKVEGLQAQALYPWRAKKDNHLNFNKNDVITVLEQQDMWWFGEVQRQKGWFPKSYVKLISG", "note": "[G48R]", "abundance fitness": "-0.224 ± 0.094"},
      {"variant": "QGEKVEGLQAQALYPWRAKKDNHLNFNKNDVITVLEQQDMWWFGEVQKQKGWFPKSYVKLISG", "note": "[G48K]", "abundance fitness": "-0.053 ± 0.18"},
      {"variant": "QGEKVEGLQAQALYPWRAKKDNHLNFNKNDVITVLEQQDMWWFGEVQEQKGWFPKSYVKLISG", "note": "[G48E]", "abundance fitness": "0.011 ± 0.15"},
      {"variant": "QGEKVEGLQAQALYPWRAKKDNHLNFNKNDVITVLEQQDMWWFGEVQWQKGWFPKSYVKLISG", "note": "[G48W]", "abundance fitness": "-0.939 ± 0.41"},
      {"variant": "QGEKVEGLQAQALYPWRAKKDNHLNFNKNDVITVLEQQDMWWFGEVQVQKGWFPKSYVKLISG", "note": "[G48V]", "abundance fitness": "-0.584 ± 0.12"},
      {"variant": "QGEKVEGLQAQALYPWRAKKDNHLNFNKNDVITVLEQQDMWWFGEVQMQKGWFPKSYVKLISG", "note": "[G48M]", "abundance fitness": "-0.226 ± 0.17"},
      {"variant": "QGEKVEGLQAQALYPWRAKKDNHLNFNKNDVITVLEQQDMWWFGEVQAQKGWFPKSYVKLISG", "note": "[G48A]", "abundance fitness": "-0.208 ± 0.11"},
      {"variant": "QGEKVEGLQAQALYPWRAKKDNHLNFNKNDVITVLEQQDMWWFGEVQSQKGWFPKSYVKLISG", "note": "[G48S]", "abundance fitness": "-0.149 ± 0.097"},
      {"variant": "QGEKVEGLQAQALYPWRAKKDNHLNFNKNDVITVLEQQDMWWFGEVQLQKGWFPKSYVKLISG", "note": "[G48L]", "abundance fitness": "-0.259 ± 0.1"},
      {"variant": "QGEKVEGLQAQALYPWRAKKDNHLNFNKNDVITVLEQQDMWWFGEVQCQKGWFPKSYVKLISG", "note": "[G48C]", "abundance fitness": "-0.361 ± 0.15"},
      {"variant": "QGEKVEGLQAQALYPWRAKKDNHLNFNKNDVITVLEQQDMWWFGEVKGQKGWFPKSYVKLISG", "note": "[Q47K]", "abundance fitness": "0.027 ± 0.15"},
      {"variant": "QGEKVEGLQAQALYPWRAKKDNHLNFNKNDVITVLEQQDMWWFGEVEGQKGWFPKSYVKLISG", "note": "[Q47E]", "abundance fitness": "0.017 ± 0.12"},
      {"variant": "QGEKVEGLQAQALYPWRAKKDNHLNFNKNDVITVLEQQDMWWFGEVLGQKGWFPKSYVKLISG", "note": "[Q47L]", "abundance fitness": "-0.254 ± 0.11"},
      {"variant": "QGEKVEGLQAQALYPWRAKKDNHLNFNKNDVITVLEQQDMWWFGEVRGQKGWFPKSYVKLISG", "note": "[Q47R]", "abundance fitness": "-0.151 ± 0.088"},
      {"variant": "QGEKVEGLQAQALYPWRAKKDNHLNFNKNDVITVLEQQDMWWFGEVTGQKGWFPKSYVKLISG", "note": "[Q47T]", "abundance fitness": "-0.014 ± 0.14"},
      {"variant": "QGEKVEGLQAQALYPWRAKKDNHLNFNKNDVITVLEQQDMWWFGEVDGQKGWFPKSYVKLISG", "note": "[Q47D]", "abundance fitness": "-0.546 ± 0.2"},
      {"variant": "QGEKVEGLQAQALYPWRAKKDNHLNFNKNDVITVLEQQDMWWFGEVMGQKGWFPKSYVKLISG", "note": "[Q47M]", "abundance fitness": "-0.097 ± 0.1"}
    ]}
  ]
}
